Test [1] concerns the target Equine IL4R-ECD_C-HuFc_His6 (processed) (equine). The experiment in a line: Western blot, reducing and non-reducing SDS-PAGE. How it is done: (§1) Cross-reactivity of Clone I antibody to feline, equine, murine, and human IL4R was also investigated. Canine IL4R-ECD_C-HuFc_His6 (SEQ ID NO: 109), feline IL4R-ECD_C-HuFc_His6 (SEQ ID NO: 111), equine IL4R-ECD_C-HuFc_His6 (SEQ ID NO: 113), murine IL4R-ECD_C-HuFc_His6 (SEQ ID NO: 115), and human IL4R-ECD_C-HuFc_His6 (SEQ ID NO: 117) (0.1 μg/lane) were each separated by SDS-PAGE under reducing (+DTT) or non-reducing (−DTT) conditions. The proteins were transferred to PVDF membranes and the blots were probed with Clone I antibody (0.3 μg/mL) and visualized by goat anti-mouse IgG-HRP (FIG. 4A). As a control, the blot was stripped and probed with goat anti-human IgG Fc-HRP to visualize the presence of the IL4R-ECD proteins (FIG. 4B). Clone I antibody immunoreacted with canine IL4R-ECD_C-HuFc_His6 and to a lesser extent with feline IL4R-ECD_C-HuFc_His6 under non-reducing conditions (FIG. 4A, lanes 5 and 1, respectively).
In general terms: Immunoblotting shows a protein as a band on a membrane.

Test [2] concerns the target Murine IL4R-ECD_C-HuFc_His6 (processed) (murine). The experiment in a line: Western blot, reducing and non-reducing SDS-PAGE. Here is the method:
as §1

The target of test [3] is Human IL4R-ECD_C-HuFc_His6 (processed) (human). The experiment in a line: Western blot, reducing and non-reducing SDS-PAGE. Here is the method:
as §1

Test [4] concerns the target Canine/Human IL4R-ECD_C-HuFc_His6_Hybrid1 (canine/human hybrid). Kind of test: Western blot, non-reducing, 293 supernatant concentrated 3-fold.
Test [5] has as its target Canine/Human IL4R-ECD_C-HuFc_His6_Hybrid6 (canine/human hybrid). The test is described as above.
Test [6] deals with Canine/Human IL4R-ECD_C-HuFc_His6_Hybrid13 (canine/human hybrid). The description is as above.
Sequence of Canine/Human IL4R-ECD_C-HuFc_His6_Hybrid13 (canine/human hybrid) (chain, as listed by the source limits assumed): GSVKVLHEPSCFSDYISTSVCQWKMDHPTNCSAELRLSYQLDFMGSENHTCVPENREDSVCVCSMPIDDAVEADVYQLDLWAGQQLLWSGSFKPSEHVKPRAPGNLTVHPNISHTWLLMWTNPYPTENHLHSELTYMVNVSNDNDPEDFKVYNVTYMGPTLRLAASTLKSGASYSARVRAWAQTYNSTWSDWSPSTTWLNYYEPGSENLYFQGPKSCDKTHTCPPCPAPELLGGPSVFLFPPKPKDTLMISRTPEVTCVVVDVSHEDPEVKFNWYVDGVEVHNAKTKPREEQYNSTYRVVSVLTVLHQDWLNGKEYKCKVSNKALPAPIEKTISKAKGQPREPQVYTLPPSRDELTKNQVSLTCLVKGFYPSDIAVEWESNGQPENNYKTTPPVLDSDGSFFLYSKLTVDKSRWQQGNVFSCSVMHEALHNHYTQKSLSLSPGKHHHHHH
Test [7] has as its target Feline IL4R-ECD_C-HuFc_His6 (processed) (feline, biotinylated in the Octet assay of Example 10). The experiment in a line: BLI (Octet): biotinylated feline IL4R-ECD_C-HuFc_His6 on streptavidin tips, Clone I 25 ug/mL, 1:1 model. How it is done:
This finding was consistent with in vitro binding affinity measured by Octet Biosensor. Biotinylated feline IL4R-ECD_C-HuFc_His6 (SEQ ID NO: 111) was captured on streptavidin sensor tips. The association of Clone I antibody (25 μg/mL) and feline IL4R-ECD_C-HuFc_His6 was monitored for 600 seconds. Dissociation was monitored for 600 seconds. A buffer only blank curve was subtracted to correct for any drift. The data were fit to a 1:1 binding model using ForteBio™ data analysis software to determine the kₒₙ, koff, and the Kd. The buffer for dilutions and all binding steps was 20 mM phosphate, 150 mM NaCl, pH 7.2.
A general note: Biolayer interferometry detects binding as a change in optical thickness at a sensor tip.

Sequence of Equine IL4R-ECD_C-HuFc_His6 (processed) (equine) (chain, as listed by the source limits assumed): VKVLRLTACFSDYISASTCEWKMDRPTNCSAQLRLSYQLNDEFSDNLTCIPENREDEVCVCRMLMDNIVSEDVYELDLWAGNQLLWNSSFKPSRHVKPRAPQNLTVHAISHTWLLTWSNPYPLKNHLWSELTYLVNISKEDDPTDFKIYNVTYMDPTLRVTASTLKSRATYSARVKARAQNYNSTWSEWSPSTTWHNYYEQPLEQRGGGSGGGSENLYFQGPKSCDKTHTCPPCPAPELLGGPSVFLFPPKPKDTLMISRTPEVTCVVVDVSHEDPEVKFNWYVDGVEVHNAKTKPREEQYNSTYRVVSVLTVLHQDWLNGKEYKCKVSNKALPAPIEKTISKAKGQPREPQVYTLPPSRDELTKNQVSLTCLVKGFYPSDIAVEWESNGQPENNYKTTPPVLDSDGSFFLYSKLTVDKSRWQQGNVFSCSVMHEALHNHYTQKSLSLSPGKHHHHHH
Sequence of Feline IL4R-ECD_C-HuFc_His6 (processed) (feline, biotinylated in the Octet assay of Example 10) (chain, as listed by the source limits assumed): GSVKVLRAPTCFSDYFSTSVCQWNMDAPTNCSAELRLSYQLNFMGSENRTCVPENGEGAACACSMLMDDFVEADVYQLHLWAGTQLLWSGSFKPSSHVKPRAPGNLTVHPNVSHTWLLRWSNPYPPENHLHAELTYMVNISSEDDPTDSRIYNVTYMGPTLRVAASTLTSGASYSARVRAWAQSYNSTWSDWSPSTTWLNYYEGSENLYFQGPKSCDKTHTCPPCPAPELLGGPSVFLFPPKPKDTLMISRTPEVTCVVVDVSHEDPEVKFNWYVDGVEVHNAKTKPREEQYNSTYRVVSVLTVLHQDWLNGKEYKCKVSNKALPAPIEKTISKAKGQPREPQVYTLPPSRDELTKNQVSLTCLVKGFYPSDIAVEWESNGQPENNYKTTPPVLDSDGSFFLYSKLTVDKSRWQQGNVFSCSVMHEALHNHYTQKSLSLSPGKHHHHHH
Sequence of Murine IL4R-ECD_C-HuFc_His6 (processed) (murine) (chain, as listed by the source limits assumed): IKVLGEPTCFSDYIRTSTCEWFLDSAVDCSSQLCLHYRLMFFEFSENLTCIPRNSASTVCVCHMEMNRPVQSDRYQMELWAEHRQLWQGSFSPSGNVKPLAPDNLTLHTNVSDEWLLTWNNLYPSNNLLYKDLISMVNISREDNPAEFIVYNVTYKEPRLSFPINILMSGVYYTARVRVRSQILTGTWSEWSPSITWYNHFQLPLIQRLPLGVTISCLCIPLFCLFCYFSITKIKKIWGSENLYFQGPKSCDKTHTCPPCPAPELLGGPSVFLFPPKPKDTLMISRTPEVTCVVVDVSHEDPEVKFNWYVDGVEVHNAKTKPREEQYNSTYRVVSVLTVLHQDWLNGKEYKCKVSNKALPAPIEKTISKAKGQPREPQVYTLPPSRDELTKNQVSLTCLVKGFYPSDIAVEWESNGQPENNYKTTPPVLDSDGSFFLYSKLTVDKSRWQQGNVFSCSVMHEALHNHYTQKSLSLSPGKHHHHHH
Sequence of Human IL4R-ECD_C-HuFc_His6 (processed) (human) (chain, as listed by the source limits assumed): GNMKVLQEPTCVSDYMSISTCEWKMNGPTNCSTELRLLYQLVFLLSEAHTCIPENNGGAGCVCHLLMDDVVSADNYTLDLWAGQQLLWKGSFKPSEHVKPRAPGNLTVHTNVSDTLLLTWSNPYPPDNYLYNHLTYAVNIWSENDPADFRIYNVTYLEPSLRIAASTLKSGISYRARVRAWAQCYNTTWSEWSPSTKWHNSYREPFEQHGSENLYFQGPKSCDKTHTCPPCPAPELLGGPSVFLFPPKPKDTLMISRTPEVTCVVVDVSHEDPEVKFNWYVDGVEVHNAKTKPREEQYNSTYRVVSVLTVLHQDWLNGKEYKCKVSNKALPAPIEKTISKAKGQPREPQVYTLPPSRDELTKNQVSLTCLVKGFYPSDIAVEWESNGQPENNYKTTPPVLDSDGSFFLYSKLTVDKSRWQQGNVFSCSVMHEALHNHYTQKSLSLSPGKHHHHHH
Sequence of Canine/Human IL4R-ECD_C-HuFc_His6_Hybrid1 (canine/human hybrid) (chain, as listed by the source limits assumed): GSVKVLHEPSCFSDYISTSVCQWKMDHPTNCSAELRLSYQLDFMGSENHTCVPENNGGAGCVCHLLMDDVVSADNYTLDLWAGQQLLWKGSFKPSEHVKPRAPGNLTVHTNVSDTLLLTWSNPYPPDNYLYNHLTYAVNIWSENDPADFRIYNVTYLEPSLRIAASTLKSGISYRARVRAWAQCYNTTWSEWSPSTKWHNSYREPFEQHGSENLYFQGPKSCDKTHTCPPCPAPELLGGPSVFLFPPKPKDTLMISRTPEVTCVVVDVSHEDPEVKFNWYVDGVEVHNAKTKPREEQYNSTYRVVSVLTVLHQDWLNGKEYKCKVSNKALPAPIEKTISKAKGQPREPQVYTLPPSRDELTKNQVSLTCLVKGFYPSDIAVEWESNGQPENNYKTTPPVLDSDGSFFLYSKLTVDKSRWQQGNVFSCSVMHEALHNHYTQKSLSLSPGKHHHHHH
Sequence of Canine/Human IL4R-ECD_C-HuFc_His6_Hybrid6 (canine/human hybrid) (chain, as listed by the source limits assumed): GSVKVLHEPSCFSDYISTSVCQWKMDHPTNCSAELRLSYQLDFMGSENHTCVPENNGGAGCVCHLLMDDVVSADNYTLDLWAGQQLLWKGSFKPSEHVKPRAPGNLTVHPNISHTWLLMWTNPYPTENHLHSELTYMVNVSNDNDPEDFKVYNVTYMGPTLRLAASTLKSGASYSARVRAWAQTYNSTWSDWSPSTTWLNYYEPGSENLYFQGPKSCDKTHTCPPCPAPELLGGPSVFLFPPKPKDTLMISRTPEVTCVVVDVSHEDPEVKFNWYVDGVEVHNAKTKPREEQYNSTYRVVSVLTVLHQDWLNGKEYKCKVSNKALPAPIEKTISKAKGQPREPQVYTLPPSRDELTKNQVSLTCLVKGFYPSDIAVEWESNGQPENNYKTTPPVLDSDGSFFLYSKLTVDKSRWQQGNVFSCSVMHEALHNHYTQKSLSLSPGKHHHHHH

B1: Clone I antibody (mouse monoclonal anti-canine IL4R) (antibody, mouse IgG1, kappa, V domains shown)
VH: EVQLQQSGPELVKPGASVKMSCKASGYTFTSYVMHWVKQKPGQGLEWIGYINPNNDGTFYNGKFKGKATLTSDKSSSTAYMELSSLTSEDSAVYYCAAFYYGFAYWGQGTLVTVSA
VL: DIVLTQSPSSLSASLGERVSLTCRASQEISGYLSWLQQKPDGTIKRLIYAASTLDSGVPKRFSGSRSGSDFSLTISSLESEDFADYYCLQYASYPWTFGGGAKLEIKR
notes: Mouse IgG; also called anti-IL4R-mAb Clone I
In the case of B1, the binding result in test [1] is listed as “no binding (tested: Clone I 0.3 ug/mL; 0.1 ug/lane)”; in test [2] it was “no binding (tested: Clone I 0.3 ug/mL; 0.1 ug/lane)”; in test [3], “no binding (tested: Clone I 0.3 ug/mL; 0.1 ug/lane)”; in test [4] it was “binds”; in test [5] it was “binds”; in test [6], “binds”. The Kd – broadly, a measure of binding affinity in units of concentration – in test [7] stood at 1.1 nM.

(Values after patent US20220049002A1 (KINDRED BIOSCIENCES, published 2022).)
